Experimental findings from article PMC2172855 are described below.

The assay concerns the target microtubules of cultured mouse hippocampal neurons (mouse (endogenous in cultured hippocampal neurons)) (UniProt P68369). In words: immunostaining of cells or tissue.

With “tailless KIF5B G234A::YFP (from UniProt Q61768 1-761) (domain or fragment)”, the fluorescence ratio of rigor-KIF5::GFP to tubulin staining, in axons came out at 1.2 and the fluorescence ratio of rigor-KIF5::GFP to tubulin staining, in dendrites amounted to 0.5.
